# From paper PMC4989314, “Regulatory (pan-)genome of an obligate intracellular pathogen in the PVC superphylum”
# T1: His6-HrcA (Waddlia chondrophila) (UniProt D6YSD6)
# T1 sequence: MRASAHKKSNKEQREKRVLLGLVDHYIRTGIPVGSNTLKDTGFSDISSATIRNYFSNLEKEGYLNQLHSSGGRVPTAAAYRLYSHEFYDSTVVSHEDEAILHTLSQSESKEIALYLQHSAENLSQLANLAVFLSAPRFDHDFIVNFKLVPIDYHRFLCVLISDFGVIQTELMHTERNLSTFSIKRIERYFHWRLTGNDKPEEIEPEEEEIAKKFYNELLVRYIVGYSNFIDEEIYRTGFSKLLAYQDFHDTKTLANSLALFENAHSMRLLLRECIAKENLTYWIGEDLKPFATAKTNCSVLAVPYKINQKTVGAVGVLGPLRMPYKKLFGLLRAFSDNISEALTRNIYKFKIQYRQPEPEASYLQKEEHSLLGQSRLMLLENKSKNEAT
# T2: His6-Euo (Waddlia chondrophila) (UniProt D6YSI2)
# T2 sequence: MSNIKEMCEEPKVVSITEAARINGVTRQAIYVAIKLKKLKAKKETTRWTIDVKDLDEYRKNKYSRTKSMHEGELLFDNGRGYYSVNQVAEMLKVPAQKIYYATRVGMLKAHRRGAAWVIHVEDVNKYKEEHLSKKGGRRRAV
# T3: His6-Euo (Waddlia chondrophila, UniProt D6YSI2 1-142)
# T3 sequence: T2 sequence
# B1: PqueF_mut 1+2+3+4 (dsDNA)
# DNA 1: AAACTGCAGGGCCAATCTTTCATTGATTGTCCATTCATGGTCGGCAAGGGTTGAGAGAAGGGCTTTATTTTAGGGTTCGTTCTTTGATAGGGTTGCAGGCATGGTGCAAGTGCAGGATTCAGTTTTAGGAAAAAAGACGTTTTATAAGGATCGGTACGAGTCGACAAA
# DNA 2: TTTGTCGACTCGTACCGATCCTTATAAAACGTCTTTTTTCCTAAAACTGAATCCTGCACTTGCACCATGCCTGCAACCCTATCAAAGAACGAACCCTAAAATAAAGCCCTTCTCTCAACCCTTGCCGACCATGAATGGACAATCAATGAAAGATTGGCCCTGCAGTTT
# B2: PftsY_mut 1+2 (dsDNA)
# DNA 1: TTTGTCGACTTATCTTACACAACTGAGACTTCCAATGGTACTACCCTTCTTCCCATCTAGTTTTGAAAAAGTTAAAAATGCCCTCTCCAAAACGCGTTCCGCTCTGGGAGAAAAATTGCGTTCTCTTTTCAGTGGAAAAATCGATGAAGAAACACTGGACTGCAGTTT
# DNA 2: AAACTGCAGTCCAGTGTTTCTTCATCGATTTTTCCACTGAAAAGAGAACGCAATTTTTCTCCCAGAGCGGAACGCGTTTTGGAGAGGGCATTTTTAACTTTTTCAAAACTAGATGGGAAGAAGGGTAGTACCATTGGAAGTCTCAGTTGTGTAAGATAAGTCGACAAA
# Target: T1, His6-HrcA (Waddlia chondrophila)
# Test: EMSA
# Details: EMSA with Cy5 PCR probes or 80 ng unlabelled DNA (GelRed); buffer, salt, pH and temperature not in material
row,Molecule,binding
1,CATAACTTTTTGGGAATTTCAAGATCGACTCGGGATCGTGCAGTAAAACATTAGTATCTAATACAAAGGTCTTTTTCTTCACATACGCTCCTTTTTAATAGCACTTATAGCTTGAGAGTGCTAAATCAATTGACTTAAATAGGTTTATTT (double strand) [PphoH],binds
2,GCTGCTCAATTGGTCTATAAAAAAGGACTTGACTGGCGCCCTTCTATTGTCGACATTTTACCCGTCATTCTGGAAAAACAAATCTAGCAAATAGCTTTGTTGAGTGCTAATTCCTTCTTGACCTCTTTTAAACCCCTTGTTATAATGAAA (double strand) [PhrcA (HrcA EMSA)],binds
3,CCTATATCGTATGGCGGCTAAAAGAGCTTGACCGGGCGAAAAGGGAGCAATTTAAGCAAAAGCGGGAACGGTATTTATTGTACCGCTAAAAACTGGCACTTAAATTCATCAACTGCTAATATGTTGACGTAAATCCATTGAACTCTTAAA (double strand) [PgroES3],binds
4,CTAGCTAGCTAAACATCTGCTTAAGTGATAACACCTCTAATGCTATCAATATCCTTCGATATTTTGCAATAGAAAATTAGCACTTTGGCAATTAAAGTGCTAATAACTTATCCAGCTCCTCGACAAGATTGCTGAATTTTTTGATGGCAG (double strand) [PgroES1],binds
5,ATTTATAAAGAAACTTCTCTTGGAGGGCTTGCAGTAAACGTGCCTGAATGCTAAAAGATTTGGTATATGGAGCTAATAAAGGATCAAATGCAAAGATACGAAGAACGGGAACTCGTCGAATTCGAAAATCAAGGGATAAAAATTTTTGGA (double strand) [Pwcw_1080],binds

# Target: T2, His6-Euo (Waddlia chondrophila)
# Test: EMSA
# Details: EMSA with Cy5 PCR probes or 80 ng unlabelled DNA (GelRed); buffer, salt, pH and temperature not in material
row,Molecule,binding
1,TCCAGTGTTTCTTCATCGATTTTTCCACTGAAAAGAGAACGCAATTTTTCTCCCAGAGCGGAACGCGTTTTGGAGAGGGCATTTTTAACTTTTTCAAAACTAGATTTTAAGAATTTTAGTACCATTGGAAGTCTCAGTTGTGTAAGATAA (double strand) [PftsY (frag0)],binds
2,TTCGCGGGCAGCGTTGATCCCGCCAAAACCGCCTCCAATAATAATGACTTTAGGTTTGCTCATATCTTGTTTATATAATTAAAAATGATTTTAAAAATCCAGATTAAAATTGTTCGACGAGTTGATGGATTTCTGAAAAGGAAAGGGGGT (double strand) [Pndh],binds
3,TCGTACCGATCCTTATAAAACGTCTTTTTTCCTAAAACTGAATCCTGCACTTGCACCATGCCTGCAATTTTATCAAAGAACGAATTTTAAAATAAAGAAATTCTCTCAAAAATTGCCGACCATGAATGGACAATCAATGAAAGATTGGCC (double strand) [PqueF (frag0)],binds
4,CACCGGAAGATGTGGTGCTGATTGCGGGCAGAGGGCATGAACCTTATCAAATATTTGCGCATCAAACAATAGAATTTAAAGATCGCGAAGTTGTAGAGGATATATTACATTCATGAGGAGAAGCAATCGCAGGGAATTCTTAAAAAATAG (double strand) [PamiA],binds
5,TGTAATGCCATGGGATCGCGTTTAAGCGAGATCATATAGTAGCTCCTAAAAAAATATTCCTTGCAAGACAAACAAATTTTTTCGTGTAAAGTTTGCATTTTCAAAATCGGACCAGATGAAAATGCGCAAACTCTCTTTTTTACTCCTCC (double strand) [Prhs9],binds
6,TTGTCATGAAAAACTCTATGAATCAAATAAGGAGGGGCATTTACATGGCGCTCAGTAAAACTATCAACGAAATGAGGAGCCTTTTTACAGGTCTAATCGATGACCTTCAAAAGGCTGAAGCAGGTAACAAAGCTGCCTCTCAGCGTGTAA (double strand) [PhctA],no binding

# Target: T3, His6-Euo
# Test: EMSA; EMSA with Cy5 PCR probes or 80 ng unlabelled DNA (GelRed); buffer, salt, pH and temperature not in material
# Details: protein: recombinant; tags: His6; chain copies: 2; label: Cy5; blunt
row,Molecule,binding result
1,B1,no binding
2,B2,no binding
